Assays:
[1] = molecular target: Biotinylated human CD38-Avi-His (human); assay: SPR
[2] = molecular target: Biotinylated human CD38-Avi-His (Acrobiosystems, catalog NO: CD8-H82E7) (human); assay: SPR
[3] = molecular target: CD38 (soluble, in the SEC-MALS and electron microscopy of the ISB 1442/CD38 complex) (human); assay: SEC-MALS
[4] = molecular target: ISB 1442, CD47 x CD38 bispecific biparatopic antibody (2 + 1 BEAT format) (human); assay: flow cytometry on cells

Substance: ISB 1442 (bispecific antibody)
- Kd [1]: < 0.01 nM

Substance: ISB 1442, CD47 x CD38 bispecific biparatopic antibody (2 + 1 BEAT format) (bispecific antibody)
- fold slower dissociation at 300 RU than at 10 RU CD38 surface density [2]: 5.8 fold
- stoichiometry N (ISB 1442 per CD38 (2:2 complex)) [3]: 1

Substance: soluble CD38 (sCD38) (domain or fragment)
- molar ratio CD38/antibody at IC50 (mol CD38 per mol antibody) [4]: 2.32
